In the supplement of paper PMC9170038:

Tested on: MS2 coat protein
Assay: apparent KD of MS2 coat protein; designed switch direction (-1 OFF switch, 1 ON switch): -1; higher = weaker reporter binding
Outline: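 An oligonucleotide input, 200 uM small-molecule ligand, or no input was present during titration of SNAP-549-labelled MS2 coat protein, which was doubled from 0.7 or 1.5 nM to 3 µM. Designed RNA switches had been transcribed on Illumina chips by stalled E. coli RNA polymerase. Apparent KD per design is the median over clusters of curves fitted to normalised cluster fluorescence.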

[1] = Eterna round: R95, input ligand: FMN 200 uM
[2] = Eterna round: R95, input ligand: microRNA oligo, concentration not stated
[3] = Eterna round: R95, input ligand: none
[4] = input ligand: microRNA oligo, concentration not stated

Sequence | apparent KD of MS2 coat protein [2] | apparent KD of MS2 coat protein (input ligand: FMN 200 uM) | apparent KD of MS2 coat protein [4] | apparent KD of MS2 coat protein (input ligand: none) | other results
AGUUGGCGAGGAUAUACAUGAGGAUCACCCAUGUGAGAGAUACUAGUGAGGUCGAUUAGUAGAAGGCGCUGACG [Mat - Exclusion 3 - Mod of JL D76] (puzzle: Exclusion 3) | 25.3 nM |  |  |  | apparent KD of MS2 coat protein [1]: 1170 nM; apparent KD of MS2 coat protein [3]: 49.3 nM
ACAGUUCUGCAAGGAUAUCGUCCUAGUUUGUUUCGAGAAGGUGCUUUUGUUUUUUCUUUGUGUUGACAUGAGGAUCACCCAUGU [JR_ExcNG1_Sub052] (Eterna round: R96, puzzle: Exclusion NG 1) |  | 20.3 nM | 20.6 nM | 28.7 nM | 
GGUACUCAAAGAGUACCAAUACGAACAUGAGGAUCACCCAUGUAGGAUAUGCUACUCAAAGAGUAGCAGAAGGACGUGUACCUU [Far Half Aptamer v1] (Eterna round: R96, puzzle: Exclusion NG 3) |  |  | 18.5 nM |  | 
AAAUAACGAGGAUAUAGGGUCCGGAACAUGAGGAUCACCCAUGUAUUGGAAACAACGUGGUUAGAAGGCGUUGCCC [EX5 A.15] (Eterna round: R97, puzzle: Exclusion 5) |  | 25.6 nM |  | 28.7 nM | 
CAGACCCGCCUUGGUCACAUGAGGAUCACCCAUGUUUAGGUCUAGGAUAUGGCCGUCGAGGACGGCCAGAAGGAGAAUAUCAUG [Eternabot solution 34] (Eterna round: R96, puzzle: Exclusion NG 3) |  | 102 nM | 32.1 nM | 43 nM | 
UCGAUGUGAGGAUAUAUAUGCAGUAAUCCUUAUAUUUUAUAACUUGAGGAUCACCCAAGUAGAAGGCGCGACGU [JR_Ex2_Sub058] (Eterna round: R97, puzzle: Exclusion 2) |  | 27.3 nM |  | 31.1 nM | 
AAAGCGUGAGGAUAUGAGGCGCCGGGCCGGUUGGUGCGGAUUCAGAAGGCACAUGAGGAUCACCCAUGUCGGUA [Excls4-IV] (puzzle: Exclusion 4) | 37.2 nM |  |  |  | 
UUUAGUUCAGGAUAUGUAGAUUUUAACAUGAGGAUCACCCAUGUAGAUCCUGAAUUAACUACAGAAGGGAACAUUC [Exclusion 5: 2:c] (puzzle: Exclusion 5) | 20.9 nM |  |  |  | 
ACUUACUGAGGAUAUACAUAGAUUUACAUGAGGAUCACCCAUGUUCCUCUAUGUAUAAAUGUAGAAGGCAGAAGUU [Mat - Exclusion 5 - JL Mod - D56] (Eterna round: R97, puzzle: Exclusion 5) |  | 107 nM |  | 21.5 nM | 
UAUUGGCUAGGAUAUCCGGCUGGCGACAUGAGGAUCACCCAUGUGGACUCUGGUUGUCUUGGAGAAGGAGCAUGCG [EX5 B.19] (Eterna round: R97, puzzle: Exclusion 5) |  | 206 nM |  | 138 nM | 
GUCAUGUUAGGAUAUCUGGCAUGUGACUUCGGUCACUGUCCAGAGAAGGAACAUGAGGAUCACCCAUGUUGGAC [Ex4-3: 54] (puzzle: Exclusion 4) | 48.2 nM |  |  |  | 
AGCUGUGGCCGAGGAUAUCUAACAAUCCCAACCGAAAUAUAAUCGGACAUGAGGAUCACCCAUGUAGAGAAGGCGGUCUCAGCA [Eli eng2 - 073] (Eterna round: R96, puzzle: Exclusion NG 2) |  |  | 137 nM |  | 
GUACCAAAUGUAGGAUAUGGAUCCGAUUAGGAUCCAGAAGGACAUGAGGAUCACCCAUGUACAUGAGGAUCACCCAUUAGGUAC [Fiskers ExNg1 - 11] (Eterna round: R96, puzzle: Exclusion NG 1) |  | 97.2 nM | 26.3 nM | 34.2 nM | 
UUUUUAUAACAAGGAUAUACUAAACAUGAGGAUCACCCAUGUAAUAUUAUGAGUGAGAGAGAGAAGUAGAAGGUGUAUUAUUUU [JMF solution 2] (Eterna round: R96, puzzle: Exclusion NG 2) |  |  | 82.4 nM |  | 
AGUACUAACACGCAUGUGUUAGUACAAUAAGCUUGUGAAACAUGAGGAUCACCCAUGUCCUCAUAAGCUCGUCUUAU [salish99_TOv2_r3_068] (puzzle: Sensor v3, turn-off variant 2) | 411 nM |  |  |  | apparent KD of MS2 coat protein [1]: 17.6 nM; apparent KD of MS2 coat protein [3]: 16.1 nM
AGGUGUAGAGGAUAUCUCUUCUCUCACAUGAGGAUCACCCAUGUCCUAAAGACCAAGGAGAGAGAAGGCUACACCA [Omei Ex5 D6] (Eterna round: R97, puzzle: Exclusion 5) |  | 42 nM |  | 41.8 nM | 
GCAGCAACUCUAAUCAACUAAACAUGAGGAUCACCCAUGUCUCAGGAUAUGGUCUGGAUUACAGGCCAGAAGGGAGAAAGCUGC [Eli exng3 - 043] (Eterna round: R96, puzzle: Exclusion NG 3) |  | 16.2 nM | 11.2 nM | 12.3 nM | 
GGUACUAACACGAAAGUGUUAGUACAAUAAGCUAGUGGAACAUGAGGAUCACCCAUGUCCUCAUUAGCUCGUCUUAG [Mat - Sensor v3 - Turn-off var 2 - D37] (puzzle: Sensor v3, turn-off variant 2) | 37.6 nM |  |  |  | apparent KD of MS2 coat protein [1]: 14.7 nM; apparent KD of MS2 coat protein [3]: 12.7 nM

Sequence | apparent KD of MS2 coat protein [2] | apparent KD of MS2 coat protein (input ligand: FMN 200 uM) | apparent KD of MS2 coat protein [4] | apparent KD of MS2 coat protein (input ligand: none) | other results
AUUGUUUAUGUAGGAUAUGCCUGGCGUGCCUUUGCAGAAGGACAUGAGGAUCACCCAUGUAUUGCGGUCUGCGUUCAGAUCGCA [salish99_ExNG1_r4_032] (Eterna round: R96, puzzle: Exclusion NG 1) |  |  | 25 nM |  | 
GGGAAAGAGGUAAGGAUAUCCUCCUCGAAAGAGGAGGAGAAGGUACAUGAGGAUCACCCAUGUAAGAAGAAGAG [AK-MS2ROC-r4-Bmoexclusion4-13] (Eterna round: R97, puzzle: Brourd's mod of Exclusion 4) |  | 25 nM |  | 18.6 nM | 
CCCAUGUCAGGAUAUUAAUUGAGCAGAAAGCCCUGUUCACUUGAGAAGGGACAUGAGGAUCACCCAUGUAAAAC [Belexeedte] (Eterna round: R97, puzzle: Exclusion 4) |  | 19.2 nM |  | 507 nM | 
UUGCAGUCGUCAGGAUAUAGUAUUACGGCCUUUUAUUUCUUCAUACAUGAGGAUCACCCAUGUCGCUAGAAGGGAUUAUCGAUU [salish99_ExNG2_r04_105] (Eterna round: R96, puzzle: Exclusion NG 2) |  | 17.8 nM | 14.2 nM | 22.2 nM | 
CCUUUGUCAGGAUAUCGAAAAGGGAGGCCAAAGGCCUCCGGUGAGAAGGGACAUGAGGAUCACCCAUGUGAAAA [Soonbidibe] (puzzle: Exclusion 4) | 57.5 nM |  |  |  | 
CUGGUCCGAGGAUAUAUUAUGUGAAACAUGAGGAUCACCCAUGUUAUAUGAUGGAUGUAAAUAGAAGGCGGACUAG [JL-ex5-3.14] (puzzle: Exclusion 5) | 36.3 nM |  |  |  | apparent KD of MS2 coat protein [1]: 27.6 nM; apparent KD of MS2 coat protein [3]: 40.3 nM
ACUAGGAGAUUAGGAUAUCUAUCUCACAUGAGGAUCACCCAUGUAUAAGCGUCCUAAAGGUGGAUGGAGAAGGGAUGUCCGAAG [Eternabot solution 13] (Eterna round: R96, puzzle: Exclusion NG 2) |  | 14.1 nM | 13.8 nM | 17.5 nM | 
ACACGGCGAGGAUAUACAUGAGGAUCACCCAUGUGUCGGCCGGUACGGUAGCACUAGUGUAGAAGGCGCAUUGG [EX3 #38] (Eterna round: R97, puzzle: Exclusion 3) |  | 28.1 nM |  | 31.1 nM | 
AAGGCGUCAGGAUAUCCAAUAUAUGACAUGAGGAUCACCCAUGUUUCCACUCGUACCUCCGGAGAAGGGACAAAUA [Ex5 #87] (Eterna round: R97, puzzle: Exclusion 5) |  | 35.6 nM |  | 38 nM | 
CUAUUUUUCGCAGGAUAUGCAUCUCCUUUAUUAGCAGAAGGGCGUUAAACAUGAGGAUCACCCAUGUAUUGUGGUGCUUUUUUC [JR_ExcNG1_Sub059] (Eterna round: R96, puzzle: Exclusion NG 1) |  | 214 nM | 54.3 nM | 57.9 nM | 
CCUAGUUGGUAAGGAUAUCCUACACUGUUCUGACCCGUGCAAGCUACAUGAGGAUCACCCAUGUGGGAGAAGGUGCGUCAACGC [Design 12] (Eterna round: R96, puzzle: Exclusion NG 2) |  | 29 nM | 25.3 nM | 29.2 nM | 
AGCAUGCAGCAGGAUAUCGAUCCGCAGUAUGAUCGAGAAGGGCUGACAUGAGGAUCACCCAUGUGCGUCCUAGG [jl-ex6-4.42 ViennaUCT mod] (Eterna round: R97, puzzle: Exclusion 6) |  | 295 nM |  | 66.3 nM | 
GAAAAGGUAGGAUAUACGAAAAAAAAGGGUAGAAAAAAAACACAUGAGGAUCACCCAUGUAGAAGGGCCAAAAG [salish99_ex2_r3_032] (puzzle: Exclusion 2) | 34 nM |  |  |  | apparent KD of MS2 coat protein [1]: 40.2 nM; apparent KD of MS2 coat protein [3]: 45.3 nM
AUACCACGAGGAUAUCGUCUAUAUUACAUGAGGAUCACCCAUGUUAUAUUUGUAAUGUUUCGAGAAGGCGUGUUUU [JR_E5_Sub081] (puzzle: Exclusion 5) | 14.4 nM |  |  |  | 
AGCUGUGGCCGAGGAUAUCACGAACCAUGGAAAACCAUGGAAAUUCUACAUGAGGAUCACCCAUGUGAGAAGGCGGUCUCAGCA [Eli eng2 - 023] (Eterna round: R96, puzzle: Exclusion NG 2) |  |  | 12.5 nM |  | 
CACCGUUAACUAGGAUAUAGUACAUGAGGAUCACCCAUGUAAUAAAUGAGAAUUUCGGAUGUAUGCUAGAAGGAGUAAAUCGGC [Ostricism 48 - Jieux - Exclusion NG 2] (Eterna round: R96, puzzle: Exclusion NG 2) |  |  | 45.5 nM |  | 
GAUUAUGCGAGCUUUAGGGACAUGAGGAUCACCCAUGUUCGUCUUAUUAGUCUGGGUACGCUAACAUACCUAAAUCU [JMF 43] (puzzle: Sensor v3, turn-off variant 1) | 41.4 nM |  |  |  | apparent KD of MS2 coat protein [1]: 30.1 nM; apparent KD of MS2 coat protein [3]: 28.7 nM
